IntAct's records for PubMed 20006610

B1: Retinol dehydrogenase 12 (Homo sapiens), Q96NR8 (parent)
chain: MLVTLGLLTSFFSFLYMVAPSIRKFFAGGVCRTNVQLPGKVVVITGANTGIGKETARELASRGARVYIACRDVLKGESAASEIRVDTKNSQVLVRKLDLSDTKSIRAFAEGFLAEEKQLHILINNAGVMMCPYSKTADGFETHLGVNHLGHFLLTYLLLERLKVSAPARVVNVSSVAHHIGKIPFHDLQSEKRYSRGFAYCHSKLANVLFTRELAKRLQGTGVTTYAVHPGVVRSELVRHSSLLCLLWRLFSPFVKTAREGAQTSLHCALAEGLEPLSGKYFSDCKRTWVSPRARNNKTAERLWNVSCELLGIRWE

Variants of: B1
Conditions: with ubc_human UBC

How did the “effect of a mutation on the interaction” value turn out when MLVTLGLLTSFFSFLYMVAPSIRKFFAGGVCRTNVQLPGKVVVITGANTGNGKETARELASRGARVYIACRDVLKGESAASEIRVDTKNSQVLVRKLDLSDTKSIRAFAEGFLAEEKQLHILINNAGVMMCPYSKTADGFETHLGVNHLGHFLLTYLLLERLKVSAPARVVNVSSVAHHIGKIPFHDLQSEKRYSRGFAYCHSKLANVLFTRELAKRLQGTGVTTYAVHPGVVRSELVRHSSLLCLLWRLFSPFVKTAREGAQTSLHCALAEGLEPLSGKYFSDCKRTWVSPRARNNKTAERLWNVSCELLGIRWE [I51N] was run?
Its value is “increasing interaction”.

Variants of: B1
Conditions: with ubc_human UBC
Remark: another data set of the same source

Which “effect of a mutation on the interaction” value does the source give for MLVTLGLLTSFFSFLYMVAPSIRKFFAGGVCRTNVQLPGKVVVITGANMGIGKETARELASRGARVYIACRDVLKGESAASEIRVDTKNSQVLVRKLDLSDTKSIRAFAEGFLAEEKQLHILINNAGVMMCPYSKTADGFETHLGVNHLGHFLLTYLLLERLKVSAPARVVNVSSVAHHIGKIPFHDLQSEKRYSRGFAYCHSKLANVLFTRELAKRLQGTGVTTYAVHPGVVRSELVRHSSLLCLLWRLFSPFVKTAREGAQTSLHCALAEGLEPLSGKYFSDCKRTWVSPRARNNKTAERLWNVSCELLGIRWE [T49M] here?
The value was “increasing interaction”.
